This note sets out measurements from patent US20120165267A1 (Genentech, published 2012).

Assay [1] has as its target T1, DR5-IgG (human, UniProt O14763 56-184).
T1 construct: also called Apo-2-IgG; not shown: IgG part; prepared as in WO98/51793, not described here
In words: spot ELISA, phage on coated protein.

A further assay deals with T2, BSA (UniProt P02769 25-607).
T2 construct: Control protein of the spot ELISA
In words: spot ELISA, phage on coated protein.

Assay [2] has as its target T1, DR5-IgG. The assay is described as follows: BIAcore; against Flag.Apo2L.WT. Here is the method:
Briefly, dissociation constants (Kd) for binding of Apo-2L variants (see Tables II and III) to immobilized receptor immunoadhesins were determined from surface plasmon resonance (SPR) measurements on a Pharmacia BIAcore 3000. DR5-IgG (also referred to as Apo-2-IgG) and DcR2-IgG receptor immunoadhesins were prepared as described in WO98/51793 published Nov. 19, 1998 and WO99/10484 published Mar. 9, 1999, respectively. DR4-IgG was prepared as follows. […] Sensorgrams were recorded for Apo-2L binding at concentrations ranging from 15.6 nM to 500 nM in 2-fold increments. The kinetics constants were determined by non-linear regression analysis and used to calculate the binding constants.

The next assay addresses T3, DcR2-IgG (UniProt Q9UBN6 56-211).
T3 sequence (Q9UBN6 whole entry, species assumed, looked up): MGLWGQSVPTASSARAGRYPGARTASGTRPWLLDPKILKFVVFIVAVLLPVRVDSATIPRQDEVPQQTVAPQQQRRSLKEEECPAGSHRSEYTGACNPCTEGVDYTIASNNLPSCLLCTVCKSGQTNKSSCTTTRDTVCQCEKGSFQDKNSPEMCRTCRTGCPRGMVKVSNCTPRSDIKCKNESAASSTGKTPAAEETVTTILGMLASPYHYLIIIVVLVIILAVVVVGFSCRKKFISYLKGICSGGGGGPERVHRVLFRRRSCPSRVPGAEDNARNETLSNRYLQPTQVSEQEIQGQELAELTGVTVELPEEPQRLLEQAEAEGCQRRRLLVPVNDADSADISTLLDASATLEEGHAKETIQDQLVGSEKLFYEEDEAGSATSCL
The assay is described as follows: AlphaQuest (CARB-AQ) displacement of biotinylated Apo2L/TRAIL from receptor-IgG; against Flag-Apo2L.WT.

The next assay concerns the target T4, DcR1 receptor-IgG (UniProt O14798 26-236).
T4 construct: Captured as receptor-IgG on Protein A beads; construct not described
T4 sequence (O14798 whole entry, species assumed, looked up): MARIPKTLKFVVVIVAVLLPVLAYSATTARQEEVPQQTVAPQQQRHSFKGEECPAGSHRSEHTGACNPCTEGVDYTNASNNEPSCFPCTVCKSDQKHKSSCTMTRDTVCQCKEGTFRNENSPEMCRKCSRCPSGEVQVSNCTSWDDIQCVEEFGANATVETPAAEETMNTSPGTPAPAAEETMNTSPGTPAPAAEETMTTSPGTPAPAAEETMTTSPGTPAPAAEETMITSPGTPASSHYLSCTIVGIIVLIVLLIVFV
The assay is described as above.

T1 sequence (O14763 56-184): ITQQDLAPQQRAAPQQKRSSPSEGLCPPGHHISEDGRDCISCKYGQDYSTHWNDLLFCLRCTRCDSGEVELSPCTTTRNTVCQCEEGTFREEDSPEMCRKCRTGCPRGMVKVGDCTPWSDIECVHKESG
T2 sequence (P02769 25-607 limits assumed): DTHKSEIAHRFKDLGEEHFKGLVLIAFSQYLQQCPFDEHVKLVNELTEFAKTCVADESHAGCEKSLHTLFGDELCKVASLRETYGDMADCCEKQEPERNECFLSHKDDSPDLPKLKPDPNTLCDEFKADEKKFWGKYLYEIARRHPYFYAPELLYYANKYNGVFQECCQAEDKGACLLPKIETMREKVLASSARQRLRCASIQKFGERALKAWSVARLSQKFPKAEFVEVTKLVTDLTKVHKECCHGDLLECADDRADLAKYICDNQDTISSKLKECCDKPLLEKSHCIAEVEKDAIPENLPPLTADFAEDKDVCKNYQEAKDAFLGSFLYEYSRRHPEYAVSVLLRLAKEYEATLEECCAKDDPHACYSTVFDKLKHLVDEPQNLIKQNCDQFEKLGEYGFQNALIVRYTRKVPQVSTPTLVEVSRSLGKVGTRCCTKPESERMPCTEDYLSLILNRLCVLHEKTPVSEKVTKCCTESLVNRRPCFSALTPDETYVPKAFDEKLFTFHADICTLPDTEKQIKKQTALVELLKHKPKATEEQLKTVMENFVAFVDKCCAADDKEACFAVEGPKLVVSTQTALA

B1: DR4-selective phage clone 8 (ligand)
chain: SEETISTVQEKQQNISPLVRERGPQRVAAHITGTRGRSNTLSSPNSKNEKALGRKINSWESSRSGHSFLSNLHLRNGELVIHEKGFYYIYSQTAFRFSEEIKEVTRNDKQMVQYIYKWTDYPDPILLMKSARNSCWSKDAEYGLYSIYQGGIFELKENDRIFVSVTNEHLIDMDHEASFFGAFLVG
notes: also called DR4-8
For B1, the binding result in the assay with DR5-IgG [1] and with BSA was “no binding” each time.

B2: DR4-selective phage clone 9 (ligand)
chain: SEETISTVQEKQQNISPLVRERGPQRVAAHITGTRGRSNTLSSPNSKNEKALGRKINSWESSRSGHSFLSNLHLRNGELVIHEKGFYYIYSQTAFRFSEEIKERTRNDKQMVQYIYKWTDYPDPILLMKSARNSCWSKDAEYGLYSIYQGGIFELKENDRIFVSVTNEHLIDMDHEASFFGAFLVG
notes: also called DR4-9
For the molecule B2, the binding result with DR5-IgG [1] and in the assay with BSA was “no binding” in each case.

B3: Flag.Apo2L.DR4-9 (ligand)
chain: VRERGPQRVAAHITGTRGRSNTLSSPNSKNEKALGRKINSWESSRSGHSFLSNLHLRNGELVIHEKGFYYIYSQTAFRFSEEIKERTRNDKQMVQYIYKWTDYPDPILLMKSARNSCWSKDAEYGLYSIYQGGIFELKENDRIFVSVTNEHLIDMDHEASFFGAFLVG
notes: not shown: N-terminal flag tag from pFLAG-MAC
Consider B3, for which, in the assay with DR5-IgG [2], the “DR5 KD (mut/wt)” value is 1200 ratio. Besides, the “IC50 ratio (mutant/wt)” value with DcR2-IgG is 18 ratio; with DcR1 receptor-IgG, 4 ratio.
